Experimental findings from paper PMC6624267, “Structures of autoinhibited and polymerized forms of CARD9 reveal mechanisms of CARD9 and CARD11 activation” (Nature Communications, 2019) are described below.

Data set [1] concerns the molecule itself. Kind of data set: negative-stain EM; CARD11^8−109 WT or mutants at 250 μM or 500 μM, 2 h at 25 °C, 50 mM HEPES, 50 mM NaCl, 0.5 mM TCEP, pH 7.0.
Data set [2] deals with the molecule itself. Kind of data set: negative-stain EM; CARD9^2–152 constructs purified 1:1 with Zn2+, Zn2+ removed with a twofold excess of EDTA, incubated at the indicated concentration, time and temperature; 50 mM HEPES, 150 mM NaCl, 0.5 mM TCEP, pH 7.0; step: dimers to filaments.
Data set [3] concerns the molecule itself. Kind of data set: absorbance at 350 nm + other: negative-stain EM; CARD9^2−97 polymerisation: 1:1 Zn2+-bound CARD, EDTA added at t = 0; 50 mM Tris, 150 mM NaCl, 0.5 mM TCEP, pH 7.0, 25 °C, shaking; NS-EM grids at 90 min.
Data set [4] deals with the molecule itself. Kind of data set: NMR solution structure; CARD9^2−142 dimer, 1 mM with 1:1 ZnCl2, 50 mM HEPES, 300 mM NaCl, 0.5 mM TCEP, pH 7.0, 37 °C; intermolecular NOEs from a mixed labelled/unlabelled sample, RDCs.

B1: CARD11^8−109 (CARD11 CARD), wild type (domain or fragment, human, UniProt Q9BXL7 8-109, looked up)
chain: MDDYMETLKDEEDALWENVECNRHMLSRYINPAKLTPYLRQCKVIDEQDEDEVLNAPMLPSKINRAGRLLDILHTKGQRGYVVFLESLEFYYPELYKLVTGK
notes: CARD11 (CARMA1), human, residues 8-109 (CARD); also called WT CARD11 CARD; source: E. coli BL21(DE3), purified (Ni-NTA, TEV, Superdex 75); not shown: 6xHis, N-terminal, cleaved
For B1, the binding result in data set [1] is on record as “binds”.

B2: CARD9^2−152/L115I (domain or fragment, human, UniProt Q9H257 2-152, looked up)
chain: SDYENDDECWSVLEGFRVTLTSVIDPSRITPYLRQCKVLNPDDEEQVLSDPNLVIRKRKVGVLLDILQRTGHKGYVAFLESLELYYPQLYKKVTGKEPARVFSMIIDASGESGITQLLMTEVMKLQKKVQDLTALLSSKDDFIKELRVKDS
notes: not shown: 6xHis, N-terminal, cleaved
In the case of B2, the binding result in data set [2] was “binds”.

B3: CARD9^2−97 (CARD9 CARD alone), wild type (domain or fragment, human, UniProt Q9H257 2-97, looked up)
chain: SDYENDDECWSVLEGFRVTLTSVIDPSRITPYLRQCKVLNPDDEEQVLSDPNLVIRKRKVGVLLDILQRTGHKGYVAFLESLELYYPQLYKKVTGK
notes: CARD9, human, residues 2-97 (CARD); polymerisation started by EDTA; also called CARD9^2−97/WT; source: E. coli BL21(DE3), purified (Ni-NTA, TEV, Superdex 75); not shown: 6xHis, N-terminal, cleaved
Take B3: in data set [3], the binding result is listed as “binds”.

B4: CARD9^2−97/D43R/K58D (domain or fragment, human, UniProt Q9H257 2-97, looked up)
chain: SDYENDDECWSVLEGFRVTLTSVIDPSRITPYLRQCKVLNPRDEEQVLSDPNLVIRDRKVGVLLDILQRTGHKGYVAFLESLELYYPQLYKKVTGK
notes: CARD9, human, residues 2-97 (CARD); also called charge-swap mutant of the Type III interface; source: E. coli BL21(DE3), purified (Ni-NTA, TEV, Superdex 75; insoluble mutants under denaturing conditions); not shown: 6xHis, N-terminal, cleaved
Turning to B4, in data set [3], the binding result is “binds”.

B5: CARD9^2−142 (domain or fragment, human, UniProt Q9H257 2-142, looked up)
chain: SDYENDDECWSVLEGFRVTLTSVIDPSRITPYLRQCKVLNPDDEEQVLSDPNLVIRKRKVGVLLDILQRTGHKGYVAFLESLELYYPQLYKKVTGKEPARVFSMIIDASGESGLTQLLMTEVMKLQKKVQDLTALLSSKDD
notes: Isotope-labelled samples with 1:1 ZnCl2 for NMR; not shown: 6xHis, N-terminal, cleaved
As for B5, in data set [4], the binding result is on record as “binds”.
